Experimental data as given in PMC11348030, “mTORC1 phosphorylates and stabilizes LST2 to negatively regulate EGFR” (Proceedings of the National Academy of Sciences of the …, 2024).
Where no end group is shown, it is not given here. The star is where a group is joined. FITC = O=C1OC2(c3ccc(O)cc3Oc3cc(O)ccc32)c2ccc(NC(=S)*)cc21

Tests used:
[1] = biological target: T1, regulatory-associated protein of mTOR (RAPTOR) (UniProt Q8N122 1-1335); test: fluorescence polarisation; fluorescence anisotropy; purified RAPTOR with N-terminally FITC-labeled synthetic LST2 TOS peptides; N = 3; conditions: both partners purified
T1 construct: RAPTOR, regulatory-associated protein of mTOR; purified protein; Construct, host and tags are in SI Appendix, Material and Methods; In the cryo-EM rows RAPTOR stood as a subunit of mTORC1; source: purified
T1 sequence (Q8N122 whole entry): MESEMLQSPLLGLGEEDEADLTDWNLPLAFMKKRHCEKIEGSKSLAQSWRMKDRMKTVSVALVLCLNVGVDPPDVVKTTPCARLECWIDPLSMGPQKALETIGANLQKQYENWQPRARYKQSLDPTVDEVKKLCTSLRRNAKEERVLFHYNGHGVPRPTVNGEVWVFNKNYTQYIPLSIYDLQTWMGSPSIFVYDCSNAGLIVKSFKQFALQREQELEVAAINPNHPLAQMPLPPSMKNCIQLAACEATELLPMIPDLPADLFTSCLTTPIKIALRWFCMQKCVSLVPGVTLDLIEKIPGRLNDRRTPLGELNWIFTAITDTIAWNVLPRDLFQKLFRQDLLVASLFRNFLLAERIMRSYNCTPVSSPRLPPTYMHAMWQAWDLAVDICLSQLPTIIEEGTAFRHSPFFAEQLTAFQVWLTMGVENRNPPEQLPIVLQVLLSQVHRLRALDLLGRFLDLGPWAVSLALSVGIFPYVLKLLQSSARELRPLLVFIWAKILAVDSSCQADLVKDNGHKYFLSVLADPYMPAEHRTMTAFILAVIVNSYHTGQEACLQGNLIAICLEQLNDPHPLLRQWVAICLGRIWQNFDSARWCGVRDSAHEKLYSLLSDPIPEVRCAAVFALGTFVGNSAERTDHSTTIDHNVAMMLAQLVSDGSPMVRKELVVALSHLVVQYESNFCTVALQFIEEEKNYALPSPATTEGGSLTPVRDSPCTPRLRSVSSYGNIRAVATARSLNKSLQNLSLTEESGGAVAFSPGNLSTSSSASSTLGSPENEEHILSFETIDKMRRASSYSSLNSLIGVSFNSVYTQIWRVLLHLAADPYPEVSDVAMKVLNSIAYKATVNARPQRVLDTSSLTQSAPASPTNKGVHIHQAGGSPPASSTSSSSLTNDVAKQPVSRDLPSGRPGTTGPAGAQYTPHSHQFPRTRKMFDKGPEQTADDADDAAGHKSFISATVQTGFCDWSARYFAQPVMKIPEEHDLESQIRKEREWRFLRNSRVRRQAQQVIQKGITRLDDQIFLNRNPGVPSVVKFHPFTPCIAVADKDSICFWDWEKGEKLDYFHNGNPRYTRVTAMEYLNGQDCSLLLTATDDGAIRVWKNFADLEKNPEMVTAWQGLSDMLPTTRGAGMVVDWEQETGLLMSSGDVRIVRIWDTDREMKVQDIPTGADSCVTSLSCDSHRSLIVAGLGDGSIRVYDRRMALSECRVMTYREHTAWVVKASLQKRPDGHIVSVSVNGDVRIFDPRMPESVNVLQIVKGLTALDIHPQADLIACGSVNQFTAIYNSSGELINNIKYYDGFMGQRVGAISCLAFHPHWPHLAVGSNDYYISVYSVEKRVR

[2] = biological target: T1, regulatory-associated protein of mTOR …; test: co-IP; coimmunoprecipitation with purified RAPTOR and purified full-length LST2 (WT or F401A); blot quantified, N = 3; conditions: both partners purified

Kd [1] [nM] | fold reduction of binding against LST2-WT [2] [fold] | Binder
330 | – | {FITC}-DEEERVFFMDDVE (peptide, UniProt Q9HCC9 395-407, looked up, also called LST2 TOS peptide WT; FITC-labeled peptide; source: synthetic peptide) [FITC-labeled LST2 TOS peptide including flanking residues (amino acids 395 to 407)]
– | 9 | full-length LST2 F401A (natural protein, UniProt Q9HCC9 1-887, looked up, LST2 (ZFYVE28), full length, with F401A in the TOS motif; Tags and host in SI Appendix; also called TOS-deficient LST2-F401A; source: purified) MMNRFRKWLYKPKRSDPQLLARFYYADEELNQVAAELDSLDGRKDPQRCTLLVSQFRSCQDNVLNIINQIMDECIPQDRAPRDFCVKFPEEIRHDNLAGQLWFGAECLAAGSIIMNRELESMAMRPLAKELTRSLEDVRGALRDQALRDLNTYTEKMREALRHFDVLFAEFELSYVSAMVPVKSPREYYVQQEVIVLFCETVERALDFGYLTQDMIDDYEPALMFSIPRLAIVCGLVVYADGPLNLDRKVEDMSELFRPFHTLLRKIRDLLQTLTEEELHTLERNLCISQDVEFPIRADVQGPAALAPALSAPLPPEGPLSAKAKDPDAELACSMQYDDQELEQLSRMVHRAGDEMSSLLSPPIACQSPAHRPGAEGSPGGEASPGRPRLRSGSDEEERVAFMDDVEGTAEALARPESPAGPFGWAGSTWADPQEKGQGGPGGAAGISLPASEKEEDLSNNNLEAEGTDGASLAGTSSCSCLDSRLHLDGWEVGADDAETAEMIAHRTGGMKLSATVIFNPKSPTSLDSAVATQEAASEPVAEGMDGGPHKLSTGATNCLLHSCVCCGSCGDSREDVVERLREKCSPGGVIGASYAAGLAKASDRAPERQEEAPPPSEDASNGREPKAPTSDKCLPHTSGSQVDTASGLQGEAGVAGQQEPEARELHAGSPSAHEAPQALSGSSSSTAGSCSSDKMGPEAAPAATHAAPQATREKIRSRFHGSHDLIHRLFVCISGVADQLQTNYASDLRSILKTLFEVMATKPETDDKEKLRKVTQTLRSAALEDCALCQETLSSSELAAKTRDGDFEDPPEWVPDEACGFCTACKAPFTVIRRKHHCRSCGKIFCSRCSSHSAPLPRYGQVKPVRVCTHCYMFHVTPFYSDKAGL
